Results as given in IntAct's records for PubMed 19368893.

B1: ADP-ribosylation factor-like protein 2-binding protein (Homo sapiens), Q9Y2Y0 (parent)
chain: MDALEGESFALSFSSASDAEFDAVVGYLEDIIMDDEFQLLQRNFMDKYYLEFEDTEENKLIYTPIFNEYISLVEKYIEEQLLQRIPEFNMAAFTTTLQHHKDEVAGDIFDMLLTFTDFLAFKEMFLDYRAEKEGRGLDLSSGLVVTSLCKSSSLPASQNNLRH

Variants of: B1
Conditions: with arl2_human ARL2, P36404
Chain of arl2_human ARL2, P36404 (P36404 whole entry): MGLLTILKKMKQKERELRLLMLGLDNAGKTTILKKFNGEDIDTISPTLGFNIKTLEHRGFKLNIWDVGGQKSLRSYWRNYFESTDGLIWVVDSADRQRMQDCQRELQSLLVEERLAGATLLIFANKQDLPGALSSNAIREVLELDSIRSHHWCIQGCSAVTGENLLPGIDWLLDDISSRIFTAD

Effect of a mutation on the interaction, decreasing interaction:
MDALEGESFALSFSSASDAEFDAVVGYLEDIIMDDEFQLLQRNFMDKYYLEFEDTEENKLIYTPIFNEYISLVEKYIEEQLLQRIPEFNMAAFTTTLQHHKDEVAGDIFDMLLTATDFLAFKEMFLDYRAEKEGRGLDLSSGLVVTSLCKSSSLPASQNNLRH [F115A]
MDALEGESFALSFSSASDAEFDAVVGYLEDIIMDDEFQLLQRNFMDKYYLEFEDTEENKLIYTPIFNEYISLVAKYIEEQLLQRIPEFNMAAFTTTLQHHKDEVAGDIFDMLLTFTDFLAFKEMFLDYRAEKEGRGLDLSSGLVVTSLCKSSSLPASQNNLRH [E74A]
MDALEGESFALSFSSASDAEFDAVVGYLEDIIMDDEFQLLQRNFMDKYYLEFEDTEENKAIYTPIFNEYISLVEKYIEEQLLQRIPEFNMAAFTTTLQHHKDEVAGDIFDMLLTFTDFLAFKEMFLDYRAEKEGRGLDLSSGLVVTSLCKSSSLPASQNNLRH [L60A]
MDALEGESFALSFSSASDAEFDAVVGYLEDIIMDDEFQLLQRNFMDKYYLEFEDTEENKLIYTPIFNEYISLVEKYIEEQLLQRIPEFNMAAFTTTLQHHKDEVAGDIFDMALTFTDFLAFKEMFLDYRAEKEGRGLDLSSGLVVTSLCKSSSLPASQNNLRH [L112A]
MDALEGESFALSFSSASDAEFDAVVGYLEDIIMDDEFQLLQRNFMDKYYLEFEDTAENKLIYTPIFNEYISLVEKYIEEQLLQRIPEFNMAAFTTTLQHHKDEVAGDIFDMLLTFTDFLAFKEMFLDYRAEKEGRGLDLSSGLVVTSLCKSSSLPASQNNLRH [E56A]
MDALEGESFALSFSSASDAEFDAVVGYLEDIIMDDEFQLLQRNFMDKYYLEFEDTEENKLIYTPIFNEYISLVEKYIEEQLLQRIPEFNMAAFTTTLQHHKDEVAGDIFAMLLTFTDFLAFKEMFLDYRAEKEGRGLDLSSGLVVTSLCKSSSLPASQNNLRH [D110A]
MDALEGESFALSFSSASDAEFDAVVGYLEDIIMDDEFQLLQRNFMDKYYLEFEDTEANKLIYTPIFNEYISLVEKYIEEQLLQRIPEFNMAAFTTTLQHHKDEVAGDIFDMLLTFTDFLAFKEMFLDYRAEKEGRGLDLSSGLVVTSLCKSSSLPASQNNLRH [E57A]
MDALEGESFALSFSSASDAEFDAVVGYLEDIIMDDEFQLLQRNFMDKYYLEFEDTEENKLIYTPIFNEYISLVEKYIEEQLLQRIPEFNMAAFTTTLQHHKDEVAGDIADMLLTFTDFLAFKEMFLDYRAEKEGRGLDLSSGLVVTSLCKSSSLPASQNNLRH [F109A]
